Measurements as given in paper PMC11176775, “Impact of DNA ligase 1 and IIIα interactions with APE1 and polβ on the efficiency of base excision repair pathway at the downstream steps” (The Journal of Biological Chemistry, 2024).

Target: DNA polymerase β (1–335 amino acids), as used in SEC and in the repair assays (UniProt P06746 1-335)
Assay: cell-based or functional assay

amount of ligation products after polβ dGTP:C insertion in the coupled assay, absence against presence of the N-terminal region of LIG1, earlier time points (10-60 s): ~20 fold
B1: LIG1▵N-terminal (262–919 amino acids) (domain or fragment)
chain: DPSGYNPAKNNYHPVEDACWKPGQKVPYLAVARTFEKIEEVSARLRMVETLSNLLRSVVALSPPDLLPVLYLSLNHLGPPQQGLELGVGDGVLLKAVAQATGRQLESVRAEAAEKGDVGLVAENSRSTQRLMLPPPPLTASGVFSKFRDIARLTGSASTAKKIDIIKGLFVACRHSEARFIARSLSGRLRLGLAEQSVLAALSQAVSLTPPGQEFPPAMVDAGKGKTAEARKTWLEEQGMILKQTFCEVPDLDRIIPVLLEHGLERLPEHCKLSPGIPLKPMLAHPTRGISEVLKRFEEAAFTCEYKYDGQRAQIHALEGGEVKIFSRNQEDNTGKYPDIISRIPKIKLPSVTSFILDTEAVAWDREKKQIQPFQVLTTRKRKEVDASEIQVQVCLYAFDLIYLNGESLVREPLSRRRQLLRENFVETEGEFVFATSLDTKDIEQIAEFLEQSVKDSCEGLMVKTLDVDATYEIAKRSHNWLKLKKDYLDGVGDTLDLVVIGAYLGRGKRAGRYGGFLLASYDEDSEELQAICKLGTGFSDEELEEHHQSLKALVLPSPRPYVRIDGAVIPDHWLDPSAVWEVKCADLSLSPIYPAARGLVDSDKGISLRFPRFIRVREDKQPEQATTSAQVACLYRKQSQIQNQQGEDSGSDPEDTY
